Biological target: Filamentous actin (F-actin) (rabbit, UniProt P68135 1-377)
Experiment: co-sedimentation; 1–30 μM polymerized actin incubated with 10 μM MYPN Ig3, Ig4 or Ig3–4 domain for 1 h in 100 μL, 150 000×g for 30 min; SDS-PAGE of supernatants and pellets, densitometry; F-buffer (Tris, KCl, MgCl2, DTT, pH 8.0)
Conditions: both partners purified

B1: Myopalladin (MYPN) Ig3-4 tandem domain (domain or fragment)
chain: PIFDKRLKHFRVTEGSPVTFTCKIVGIPVPKVYWFKDGKQISKRNEHCKMRREGDGTCSLHIESTTSDDDGNYTIMAANPQGRISCSGHLMVQSLPIRSRLTSAGQSHRGRSRVQERDKEPLQERFFRPHFLQAPGDMVAHEGRLCRLDCKVSGLPPPELTWLLNGQPVLPDASHKMLVRETGVHSLLIDPLTQRDAGTYKCIATNKTGQNSFSLELS
- Kd: 4.6 µM

Reference: PMC7015241, “Myopalladin promotes muscle growth through modulation of the serum response factor pathway” (Journal of Cachexia, Sarcopenia and Muscle, 2019)
